The text below walks through data of patent US20180214548A1 (SHANGHAI YUNYI HEALTHCARE AND TECHNOLOGY, published 2018).

Assay [1] addresses T1, full length human PD-1 on cells (human, UniProt Q15116 25-288).
T1 construct: Also used here for PD-1 on human T cells/PBMC; also called CHO-K1-hPD-1; hPD-1
Nature of the assay: flow cytometry, CHO-K1-hPD-1 cells; antibody 0.0316 nM. The text has this: (§1) CHO-K1 cells were stably transfected with pIRES plasmid containing the nucleic acid sequence encoding full length human PD-1 (see Example 2, step 2) to generate CHO-K1 cells stably expressing human PD-1 (herein referred to as CHO-K1-hPD-1 cells). Other CHO-K1 were stably transfected with pIRES plasmid containing the nucleic acid sequence encoding full length cyno PD-1 to generate CHO-K1 cells stably expressing cyno PD-1 (herein referred to as CHO-K1-cPD-1 cells). CHO-K1-hPD-1 and CHO-K1-cPD-1 cells were cultured and expanded in T-75 culture flasks to 90% confluence. The culture media was aspirated, and the cells were washed twice with HBSS (Hanks Balanced Salt Solution, Invitrogen). The cells were treated with enzyme-free cell dissociation solution (Versene solution, Invitrogen) and collected. The cells were then washed twice with HBSS, cell counts were determined, and cells were resuspended with HBSS at 2×10⁶ cells/mL. Goat serum was added to the cell suspension to a final concentration of 1%, and the cells were blocked for 30 minutes on ice and then washed twice with HBSS. The cells were collected after centrifugation and resuspended in FACS buffer (HBSS+1% BSA, v/v) at 2×10⁶ cells/mL. 100 uL of the cell suspension were then added to each well of 96-well plate. 100 uL of purified anti-PD-1 antibodies from Example 2 were added to each well of the 96-well plate and incubated for 2 hours on ice. […] The samples were washed three times with FACS buffer, and 100 uL fixation buffer (4% paraformaldehyde v/v) were added to each well and incubated for 10 minutes. The cells were then washed twice with FACS buffer and resuspended in 100 uL FACS buffer. The mean fluorescence intensity (MFI) was determined using FACS Calibur (BD), and the results are shown in FIGS. 7-8 and in Tables 10-11.

Assay [2] has as its target T1, full length human PD-1 on cells. Put plainly: cell-based receptor-ligand blocking, flow cytometry: CHO-K1-hPD-1 cells, blocked ligand biotinylated PD-L2-Fc, streptavidin-Alexa 488. Here is the method:
CHO-K1-hPD-1 cells were cultured and expanded in T-75 culture flasks to 60-80% confluence. The culture media was aspirated, and the cells were washed twice with PBS. The cells were treated with TrypLE™ Express (Invitrogen) and collected. Trypsin was neutralized by the addition of 8 mL culture medium, and cell counts were determined. […] The cells were blocked for 15 minutes at 37° C. Meanwhile, the wells of 96-well round-bottom plates were blocked with 200 uL blocking buffer for 1 hour at 37° C. The blocking buffer was discarded, and 200 uL cells were dispensed to each well of the 96-well plates (2×10^5 cells/well). The plates were centrifuged at 500 g for 5 minutes, and the supernatants were discarded. The cells were resuspended in 100 uL antibody prepared in blocking buffer. […] The plates were incubated at 4° C. for 90 minutes and washed twice with 200 uL blocking buffer. […] The plates were washed three times with blocking buffer and resuspended in 200 uL blocking buffer. The mean fluorescence intensity (MFI) was determined using FACS Calibur (BD).
(In general: In flow cytometry, cells or beads pass a laser one at a time.)

Assay [3] has the same target. Nature of the assay: flow cytometry, CHO-K1-hPD-1 cells; antibody 31.6 nM.
Source text: as §1

In assay [4] the target is T2, human PD-1^ECD-hFc protein (Immunogen A) (human, UniProt Q15116 25-167).
T2 construct: Biotinylated for the Octet assay; also called PD-1-hFc; hPD-1^ECD-hFc; not shown: human IgG Fc fragment (hFc)
Put plainly: ELISA, coated human PD-1ECD-hFc; antibody 1 nM. Here is the method: (§2) 100 uL of the diluted recombinant proteins were added to each well of 96-well plate. The plates were sealed with plastic film and incubated at 4° C. overnight. The plates were washed twice with wash buffer (PBS+0.01% (v/v) Tween20), and incubated with blocking buffer (PBS+0.01% (v/v) Tween20+1% (w/w) BSA) at room temperature for 2 hours. The blocking buffer was aspirated away, and 100 uL of purified anti-PD-1 antibodies were added to each well and incubated for 2 hours at 37° C. The plates were washed three times with wash buffer (PBS+0.01% (v/v) Tween20). HRP-conjugated secondary antibody (Sigma) was added to each well and incubated for 2 hours at 37° C. After the plates were washed three times with wash buffer, 100 uL TMB substrate was added to each well and incubated for 30 minutes at room temperature. 100 uL stop solution (0.1N HCl) was added to each well to stop the reaction. The absorbance at 450 nm was measured with an ELISA plate reader (384plus SpectraMax, Molecular Devices).
For orientation: ELISA stands for enzyme-linked immunosorbent assay.

The target of assay [5] is T1, full length human PD-1 on cells. Nature of the assay: flow cytometry, CHO-K1-hPD-1 cells; antibody 100 nM.
Source text: as §1

Assay [6] has the same target. Nature of the assay: flow cytometry, CHO-K1-hPD-1 cells; antibody 3.16 nM.
Source text: as §1

Assay [7] has the same target. Put plainly: flow cytometry, CHO-K1-hPD-1 cells; antibody 0.1 nM.
Source text: as §1

Assay [8] has the same target. Nature of the assay: flow cytometry, CHO-K1-hPD-1 cells; antibody 0.316 nM.
Source text: as §1

The target is the same in assay [9]. Nature of the assay: flow cytometry, CHO-K1-hPD-1 cells; antibody 10 nM.
Source text: as §1

For assay [10], the target named is T2, human PD-1^ECD-hFc protein (Immunogen A). Nature of the assay: ELISA, coated human PD-1ECD-hFc; antibody 0.00001 nM. Here is the method:
as §2

Assay [11] has the same target. Put plainly: ELISA, coated human PD-1ECD-hFc; antibody 0.0001 nM. Here is the method:
as §2

For assay [12] the target is unchanged. Put plainly: ELISA, coated human PD-1ECD-hFc; antibody 0.001 nM. Here is the method:
as §2

T1 sequence (Q15116 25-288 limits assumed): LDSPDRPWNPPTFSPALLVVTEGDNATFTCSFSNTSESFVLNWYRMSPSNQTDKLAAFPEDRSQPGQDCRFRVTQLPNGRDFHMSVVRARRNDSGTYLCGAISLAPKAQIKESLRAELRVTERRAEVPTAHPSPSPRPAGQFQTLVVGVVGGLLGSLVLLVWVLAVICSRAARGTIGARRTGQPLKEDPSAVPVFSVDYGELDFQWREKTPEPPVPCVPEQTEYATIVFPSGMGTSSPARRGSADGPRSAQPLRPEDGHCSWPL
T2 sequence (Q15116 25-167): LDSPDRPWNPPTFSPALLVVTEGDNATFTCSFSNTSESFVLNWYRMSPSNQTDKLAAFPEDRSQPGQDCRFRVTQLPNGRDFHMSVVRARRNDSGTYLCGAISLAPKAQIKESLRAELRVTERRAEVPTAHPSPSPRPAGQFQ

B1: chimeric anti-PD-1 antibody 76G5B3 (antibody, V domains shown)
VH: QVQLVESGGGVVQPGRSLRLSCAASGFTFSDYGFHWVRQAPGKGLEWVAVIWYDGSNEYYTDSVKGRFTISRDNSKNTLYLQMNSLRAEDTAMYFCVVNPFDYWGQGTLVTVSS
VL: DIQMTQSPSSLSAFVGDRVTITCRASQGINHYLAWYQQKPGKAPNLLILAASTLLSGVPSRFGGRGSGTDFTLIISSLQPEDVATYYCQKYDSAPYTFGQGTKLEIK
notes: Purified from hybridoma of Harbour H2L2 mice: human variable regions, rat constant regions
On to B1, for which the Mean fluorescence intensity in assay [1] was 2.2; in assay [3], 466; in assay [5], 443; in assay [6] it was 280; in assay [7], 36.2; in assay [8] it was 76.8. Besides, in assay [9], the Mean fluorescence intensity was found to be 435. Besides, the “IC50 (read off the curve)” value in [2] is roughly 2 nM. In assay [4], this molecule showed an OD450 nm of 3.07.

B2: chimeric anti-PD-1 antibody 32B5C7 (antibody, V domains shown)
VH: EVQLLESGGGLVQPGGSLRLSCAASGFTFSSYAMSWVRQAPGKGLEWVSTISGSGGTTYYADSVKGRFTISRDNSKNTLYLQMNSLRAEDTAVYYCTLTGDPDYWGQGTLVTVSS
VL: EIVLTQSPATLSLSPGERATLSCRASQSVSSYLAWYQQKPGQAPRLLIYDASKRATGIPARFSGSGSGTDFTLTISSLEPEDFAVYYCQQRNNWPLTFGGGTKVEIK
notes: as for B1
Take B2: the Mean fluorescence intensity in assay [1] came to 2.1; in [3], 241; in assay [5], 253; in assay [6], 97.5; in assay [7], 13.2; in [8] it was 26.1. In assay [9], this molecule returned a Mean fluorescence intensity of 156. The same molecule came in with an OD450 nm in assay [4] of 3.02.

B3: chimeric anti-PD-1 antibody 21G8F11 (antibody, V domains shown)
VH: EVQLLESGGGLAQPGGSLRLSCAASGFSFNTYLMHWVRQAPGKGLEWVSAISGGGGNTYYADSVKGRFTISRDNSKNTLYLQMNSLRAEDTAVYYCAKENRIPVAPFDYWGQGTLVTVSS
VL: DIQMTQSPSTLSASVGDRVTITCRASQSISTWLAWYQQKPGKAPKLLIYKASSLESGVPSRFSGSGSGTEFTLTISSLQPDDLATYYCQQYNSFSWTFGQGTKVEIK
notes: as for B1
With B3, the OD450 nm came to 2.83 in assay [4], 0.405 in assay [10], 0.433 in [11] and 0.468 in [12]. Moreover, the values for the Mean fluorescence intensity in assay [5], in assay [7] and in assay [9] were 661, 22.8 and 696, respectively.
